This is an account of results in patent US20230346938A1 (Memorial Sloan Kettering, published 2023).

For assay [1], the target named is T1, CD19 endogenously expressed on Raji and NALM-6 cells (human, UniProt P15391 20-556).
T1 construct: whole, on cells; also called CD19 on NALM-6 cells; CD19 on Raji cells
T1 sequence (looked up): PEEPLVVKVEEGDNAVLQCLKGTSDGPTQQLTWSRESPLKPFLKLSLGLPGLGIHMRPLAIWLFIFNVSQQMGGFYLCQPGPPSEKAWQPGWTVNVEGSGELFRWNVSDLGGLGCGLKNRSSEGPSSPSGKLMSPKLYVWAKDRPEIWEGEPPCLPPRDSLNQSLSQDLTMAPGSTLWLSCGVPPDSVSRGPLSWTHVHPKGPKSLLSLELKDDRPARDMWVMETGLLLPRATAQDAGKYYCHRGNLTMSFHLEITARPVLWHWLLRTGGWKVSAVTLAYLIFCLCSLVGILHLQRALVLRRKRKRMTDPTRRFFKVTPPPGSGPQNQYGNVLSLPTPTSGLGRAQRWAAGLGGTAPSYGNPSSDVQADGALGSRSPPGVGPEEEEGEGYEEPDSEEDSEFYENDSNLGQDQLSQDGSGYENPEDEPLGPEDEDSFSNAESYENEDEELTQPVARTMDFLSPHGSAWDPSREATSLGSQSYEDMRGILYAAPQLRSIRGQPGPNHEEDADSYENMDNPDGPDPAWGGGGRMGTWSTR
Kind of assay: flow cytometry, serial dilution on NALM-6 cells.

Assay [2] concerns the target T2, soluble CD19-HSA fusion protein (CD19 extracellular domains fused to human serum albumin) (human, UniProt P15391 20-291).
T2 construct: extracellular domain; also called recombinant CD19 antigen; not shown: human serum albumin
T2 sequence (looked up): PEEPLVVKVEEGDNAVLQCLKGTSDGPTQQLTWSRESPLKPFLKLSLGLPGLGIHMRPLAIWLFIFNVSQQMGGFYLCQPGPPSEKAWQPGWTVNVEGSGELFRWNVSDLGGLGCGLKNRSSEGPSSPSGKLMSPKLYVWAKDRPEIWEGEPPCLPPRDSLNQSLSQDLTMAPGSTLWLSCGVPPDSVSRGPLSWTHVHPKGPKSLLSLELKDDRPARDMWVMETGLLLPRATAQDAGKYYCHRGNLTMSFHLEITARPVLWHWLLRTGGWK
Kind of assay: BLI (ForteBio Octet RED384), IgG on AHC sensors, 100 nM soluble CD19-HSA, 1:1 model.

B1: Antibody 6 (antibody, V domains shown)
VH: QVQLVESGGGVVQPGRSLRLSCAASGFTFSSYGMHWVRQAPGKGLEWVALIWYDGSNKYYADSVKGRFTISRDNSKNTLYLQMNSLRAEDTAVYYCAKPVEGLLRGFDYWGQGTLVTVSS
VL: EIVLTQSPGTLSLSPGERATLSCRASQSVRSSYLAWYQQKPGQAPRLLIYGASSRATGIPDRFSGSGSGTDFTLTISRLEPEDFAVYYCQQAGVPPLTFGGGTKVEIK
notes: Human IgG produced in Adimab yeast, purified on Protein A; Has the VH and VL of #6 scFv; also called CD19 Antibody 6
Molecule B1 came in with an EC50 in assay [1] of 0.18 nM. In addition, in assay [2], binding was characterised by a dissociation constant (Kd) of 6.4 nM, the koff was 0.000484 s⁻¹ and the kon came out at 75600 M⁻¹ s⁻¹.

B2: Antibody 5 (antibody, V domains shown)
VH: QVQLVESGGGVVQPGRSLRLSCAASGFTFSSYGMHWVRQAPGKGLEWVALIWYDGSNKYYADSVKGRFTISRDNSKNTLYLQMNSLRAEDTAVYYCAKPVEGLLRGFDYWGQGTLVTVSS
VL: EIVLTQSPGTLSLSPGERATLSCRASQSVSSSYLAWYQQKPGQAPRLLIYGASSRATGIPDRFSGSGSGTDFTLTISRLEPEDFAVYYCQQAGGVPPLTFGGGTKVEIK
notes: Human IgG produced in Adimab yeast, purified on Protein A; Has the VH and VL of #5 scFv; also called CD19 Antibody 5
The molecule B2 gave an EC50 in assay [1] of 0.219 nM. In assay [2], this molecule came in with a Kd of 10.4 nM, a koff of 0.000785 s⁻¹ and a kon of 75600 M⁻¹ s⁻¹.

B3: Antibody 2 (antibody, V domains shown)
VH: QVQLVESGGGVVQPGRSLRLSCAASGFTFSSYGMHWVRQAPGKGLEWVALIWYDGSNKYYADSVKGRFTISRDNSKNTLYLQMNSLRAEDTAVYYCAKPVEGLLRGFDYWGQGTLVTVSS
VL: EIVLTQSPGTLSLSPGERATLSCRASQSVSSSYLAWYQQKPGQAPRLLIYGASSRATGIPDRFSGSGSGTDFTLTISRLEPEDFAVYYCQQAGAVPITFGGGTKVEIK
notes: Human IgG produced in Adimab yeast, purified on Protein A; also called CD19 Antibody 2
Molecule B3 showed an EC50 in assay [1] of 0.314 nM. Besides, in assay [2], the Kd is 9.01 nM, the koff amounted to 0.000554 s⁻¹ and the on-rate constant (kon) turned out to be 61500 M⁻¹ s⁻¹.

B4: Antibody 7 (antibody, V domains shown)
VH: QVQLVESGGGVVQPGRSLRLSCAASGFTFSSYGMHWVRQAPGKGLEWVALIWYDGSNKYYADSVKGRFTISRDNSKNTLYLQMNSLRAEDTAVYYCAKPVEGLLRGFDYWGQGTLVTVSS
VL: EIVMTQSPGTLSLSPGERATLSCRASQSVSSSYLAWYQQKPGQAPRLLIYGASSRATGIPDRFSGSGSGTDFTLTISRLEPEDFAVYYCQQAGGVPPFTFGGGTKVEIK
notes: Human IgG produced in Adimab yeast, purified on Protein A; Has the VH and VL of #7 scFv; also called CD19 Antibody 7
The molecule B4 displayed an EC50 in assay [1] of 0.21 nM. In assay [2], this molecule had an equilibrium dissociation constant (Kd) of 14.9 nM, a koff of 0.00105 s⁻¹ and an on-rate (kon) of 70000 M⁻¹ s⁻¹.

B5: Antibody 1 (antibody, V domains shown)
VH: QVQLVESGGGVVQPGRSLRLSCAASGFTFSSYGMHWVRQAPGKGLEWVALIWYDGSNKYYADSVKGRFTISRDNSKNTLYLQMNSLRAEDTAVYYCAKPVEGLLRGFDYWGQGTLVTVSS
VL: EIVMTQSPGTLSLSPGERATLSCRASQSVSSSYLAWYQQKPGQAPRLLIYGASNRATGIPDRFSGSGSGTDFTLTISRLEPEDFAVYYCQQAGVFPFTFGGGTKVEIK
notes: Human IgG produced in Adimab yeast, purified on Protein A; Has the VH and VL of #1 scFv; also called CD19 Antibody 1
Regarding B5, a half-maximal response in assay [1] (EC50) required 0.588 nM. In assay [2], this molecule returned a Kd of 32.9 nM, a koff of 0.00176 s⁻¹ and a kon of 53400 M⁻¹ s⁻¹.

B6: Antibody 4 (antibody, V domains shown)
VH: QVQLVESGGGVVQPGRSLRLSCAASGFTFSSYGMHWVRQAPGKGLEWVALIWYDGSNKYYADSVKGRFTISRDNSKNTLYLQMNSLRAEDTAVYYCAKPVEGLLRGFDYWGQGTLVTVSS
VL: EIVLTQSPGTLSLSPGERATLSCRASQSVSSSYLAWYQQKPGQAPRLLIYGASSRATGIPDRFSGSGSGTDFTLTISRLEPEDFAVYYCQQVDSLHPFTFGGGTKVEIK
notes: Human IgG produced in Adimab yeast, purified on Protein A; Has the VH and VL of #4 scFv; also called CD19 Antibody 4
With B6, the EC50 in assay [1] came to 0.519 nM. In assay [2], the affinity, expressed as Kd, was 9.27 nM; the koff came to 0.000218 s⁻¹; the kon is 23500 M⁻¹ s⁻¹.

B7: Antibody 15 (antibody, V domains shown)
VH: QVQLVESGGGVVQPGRSLRLSCAASGFTFSSYGMHWVRQAPGKGLEWVALIWYDGSNKYYADSVKGRFTISRDNSKNTLYLQMNSLRAEDTAVYYCAKPVEGLLRGFDYWGQGTLVTVSS
VL: EIVLTQSPGTLSLSPGERATLSCRASQSVSSSYLAWYQQKPGQAPRLLIYGASRRATGIPDRFSGSGSGTDFTLTISRLEPEDFAVYYCQQAGIPPYTFGGGTKVEIK
notes: Human IgG produced in Adimab yeast, purified on Protein A; Has the VH and VL of #15 scFv; also called CD19 Antibody 15
For B7, in assay [1], the EC50 came to 0.27 nM. In assay [2], this molecule registered a dissociation constant (Kd) of 20.8 nM, a koff of 0.00145 s⁻¹ and a kon of 69800 M⁻¹ s⁻¹.
